# Reference: US20170184612A1, “USE OF LEUKOCYTES AND NOVEL BIOMARKERS IN THE DIAGNOSIS, CONFIRMATION, AND TREATMENT OF A NEUROLOGICAL DISORDER” (The Trustees of Columbia University in the City of New York, priority 2014, published 2017)
# Key:
# [1] = tested on: VM DA (TH+) neurons; experiment: Antigen processing and presentation, […]-MHC-I immunolabel; assay type: cell-based, mouse; settings: OVA 7 days, then IFN-γ 72 h
# Experimental: Following exposure of SN neuronal cultures to OVA or vehicle for 7 days, neurons were exposed to IFN-γ or saline for 72 h (note that these cultures were never exposed to […] (SEQ ID NO: 9)). The cultures were then double immunolabeled for TH and an antibody that recognizes only the MHC-I complex when is occupied by […] (SEQ ID NO: 9) ([…]-MHC-I). Occasional label of astrocytes, but not neurons, for […]-MHC-I was observed when the cultures were exposed to the vehicle, IFN-γ, or OVA alone (FIG. 5A). […] The results herein indicate that OVA had been processed to […] (SEQ ID NO: 9) within these mixed neuron/astrocyte cultures and loaded into the MHC-I groove within neuronal cytosol, and that the resulting complex was presented on the neuronal plasma membrane.
# IFN-γ (R&D Systems) was used at a range of non-toxic concentrations for neurons or OT-1 cells (10 μg/ml-100 ng/ml, 72h). […]
# (§1) Images were captured using a Leica SP5 microscope system. There was no fluorescence bleed-through of secondary antibodies under the conditions used. […]
# (§2) In order to assess the proportion of TH^+ and MAP-2^+ neurons that expressed MHC-I^+, first TH^+ and MAP-2^+ neurons were counted in 24 fields surrounding the border of the well at 20× magnification. The number of TH^+ or MAP-2^+ neurons with intact soma and two or more neurites equal to or greater than the diameter of the cell soma was counted. […]
# [2] = tested on: primary TH+ neurons (SN, VTA, LC); experiment: MHC-I induction in murine primary catecholamine neurons, immunofluorescence; assay type: cell-based, mouse
# Source text: To study the mechanisms underlying the preferential display of MHC-I by catecholamine neurons, primary neuronal cultures of >7 days in vitro prepared from 0-3 day old C57BL/6 mice were examined in the studies herein (Sulzer et al., 2008). DA neurons from VTA and SN and NE neurons of the LC were identified by immunolabel for TH. MHC-I staining was examined using an antibody raised against the H-2K^b and H-2D^b class I mouse alloantigens.
# B6.129P2-B2m^tm1Unc/J mice were generated by a targeted disruption of the β2m gene, and have little or no MHC-I protein expression on the cell surface^68. […]
# as §1, §2
# [3] = tested on: hES derived DA neuronal cultures; experiment: MHC-I induction in hES-derived DA neurons, immunofluorescence; assay type: cell-based, human; settings: 100 ng/ml, 72h
# Experimental: (§3) hES derived DA neuronal cultures were obtained as described (Kriks et al., 2011). Briefly, H9 human ES cells were subjected to dual SMAD-inhibition followed by exposure to sonic hedgehog, purmorphamine, FGF8 and CHIR99021. Neurons were passaged on day 20, replated on glass-bottom dishes on day 30 at a density of 200.000 cells per 20 μl droplet, and then matured in Neurobasal media with the addition of B27 supplement, GDNF, BDNF, ascorbic acid, cAMP, TGFbeta and DAPT. hES derived spinal motor neuron (MN) cultures expressing EYFP under control of the human synapsin promoter were generated by exposure to dual SMAD-inhibition followed by caudalization with retinoid acid and ventralization through the hedgehog pathway. MN aggregates were replated on day 20 and matured in Neurobasal media with the addition of B27 supplement, GDNF, BDNF, ascorbic acid, cAMP and DAPT.
# (§4) Cultures were treated with human IFN-γ (eBioscience) at a non-toxic concentration for hES (100 ng/ml, 72h). Cultures were then incubated with the MHC-I antibody prior to fixation in 4% paraformaldehyde and double immunofluorescence for TH and MHC-I as above. Micrographs were acquired using a Leica TCS SP5-II inverted confocal microscope.
# [4] = tested on: hES derived spinal motor neuron (MN) cultures; experiment: MHC-I induction in hES-derived motor neurons, immunofluorescence; assay type: cell-based, human; settings: 100 ng/ml, 72h
# Experimental: as §3, §4
molecule,measurement,setting,value
"OVA: chicken OVA, a 385 amino acid foreign protein (protein, UniProt P01012 2-386, looked up) Ovalbumin: GSIGAASMEFCFDVFKELKVHHANENIFYCPIAIMSALAMVYLGAKDSTRTQINKVVRFDKLPGFGDSIEAQCGTSVNVHSSLRDILNQITKPNDVYSFSLASRLYAEERYPILPEYLQCVKELYRGGLEPINFQTAADQARELINSWVESQTNGIIRNVLQPSSVDSQTAMVLVNAIVFKGLWEKAFKDEDTQAMPFRVTEQESKPVQMMYQIGLFRVASMASEKMKILELPFASGTMSMLVLLPDEVSGLEQLESIINFEKLTEWTSSNVMEERKIKVYLPRMKMEEKYNLTSVLMAMGITDVFSSSANLSGISSAESLKISQAVHAAHAEINEAGREVVGSAEAGVDAASVSEEFRADHPFLFCIKHIATNAVLFFGRCVSP",TH+ neurons immunolabeled for SIINFEKL-MHC-I,[1],~10%
IFN-γ: recombinant mouse IFN-γ (R&D Systems) (protein) HGTVIESLESLNNYFNSSGIDVEEKSLFLDIWRNWQKDGDMKILQSQIISFYLRLFEVLKDNQAISNNISVIESHLITTFFSNSKAKKDAFMSIAKFEVNNPQVQRQAFNELIRVVHQLLPESSLRKRKRSRC,MHC-I (H-2Kb and H-2Db) immunolabel,"[2]; neurons from β2m deficient (MHC-I null, KO) mice",did not induce MHC-I
same,plasma membrane MHC-I expression on TH+ neurons,[2]; wild type C57BL/6 neurons,induced robust plasma membrane neuronal MHC-I expression
"human IFN-γ: human IFN-γ (eBioscience), proinflammatory cytokine (protein, UniProt P01579 24-161, looked up) Interferon gamma: QDPYVKEAENLKKYFNAGHSDVADNGTLFLGILKNWKEESDRKIMQSQIVSFYFKLFKNFKDDQSIQKSVETIKEDMNVKFFNSNKKKRDDFEKLTNYSVTDLNVQRKAIHELIQVMAELSPAAKTGKRKRSQMLFRG",plasma membrane expression of MHC-I by TH+ neurons,[3],virtually all TH+ neurons
same,MHC-I expression in mature motor neurons,[4],no MHC-I expression was observed
